Assay results reported in the supplement of paper PMC10126150.
± gives the standard deviation of the averaged measurements.

Test system: ATP
Assay: switch fluorescence ratio, 500 uM ATP over buffer (Cy3 cluster intensity, sum of 5 cycles each) (fold (ratio)); higher = stronger signal-on switching upon ATP binding; sequences stand for … in TCGTCGGCAGCGTCAGATGTGTATAAGAGACAGTTTTTTTTTTTTTTTTTTTTTTTTT…TC
Conditions: aptamer strand: ATP DNA aptamer (quencher-CACCTGGGGGAGTATTGCGGAGGAAGG + anchor), 100 nM annealed; ATP concentration: 500 uM
In short: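 Values give the fluorescence ratio for each switch-domain sequence, averaged from per-cluster ratios of summed target-cycle to summed buffer-cycle Cy3 intensity. The Cy3-labelled switching-strand clusters sat on a modified Illumina MiSeq flow-cell, were annealed to 100 nM quencher-labelled ATP aptamer, and were imaged in selection buffer, then after 15 min with 500 uM ATP at 22 °C. Five cycles ran with NaOH stripping and re-annealing between them, and clusters outside 100-1000 RFU were excluded.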
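Further: ATP exposure 15 min at 22 °C before imaging.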

| Sequence | switch fluorescence ratio |
| --- | --- |
| CGGGAAAAAG | 1.08 ± 0.11 |
| CGGGAAAAGA | 1.58 ± 0.99 |
| CGGGAAAATA | 1.03 ± 0.014 |
| CGGGAAGGCT | 1.06 ± 0.13 |
| CGGGAAGGTA | 0.981 ± 0.016 |
| CGGGACAGCG | 1.01 ± 0.0058 |
| CGGGACAGTT | 1 ± 0.061 |
| CGGGACTCCG | 1.02 ± 0.0032 |
| CGGGACTTTT | 0.982 ± 0.044 |
| CGGGAGCCCA | 1.02 ± 0.044 |
| CGGGAGCGTT | 1.12 ± 0.18 |
| CGGGAGCTGG | 1.02 ± 0.023 |
| CGGGAGGAGG | 1 ± 0.028 |
| CGGGAGGCCT | 1.01 ± 0.062 |
| CGGGAGGGGT | 1.06 ± 0.14 |
| CGGGAGGGTG | 1.04 ± 0.038 |
| CGGGAGGGTT | 1 ± 0.02 |
| CGGGAGTGCT | 0.994 ± 0.019 |
| CGGGATATGA | 1.03 ± 0.028 |
| CGGGATCGTC | 0.977 ± 0.024 |
| CGGGATGATC | 0.9966 ± 0.0069 |
| CGGGATGGTT | 0.97 ± 0.11 |
| CGGGATGTTA | 0.996 ± 0.016 |
| CGGGATTCGT | 1 ± 0.057 |
| CGGGATTTTT | 0.973 ± 0.054 |

| Sequence | switch fluorescence ratio |
| --- | --- |
| CGGGCATTAG | 1.209 ± 0.0071 |
| CGGGCCATAG | 1.03 ± 0.044 |
| CGGGCCGCGG | 1.06 ± 0.083 |
| CGGGCGCTGT | 1.06 ± 0.061 |
| CGGGCGGTGG | 0.9829 ± 0.0069 |
| CGGGCGTTGT | 1 ± 0.04 |
| CGGGCTGAGA | 1.045 ± 0.0048 |
| CGGGCTGCGT | 0.962 ± 0.028 |
| CGGGCTGGAG | 1.09 ± 0.079 |
| CGGGCTTGGC | 1.01 ± 0.0022 |
| CGGGCTTGGG | 0.968 ± 0.0031 |
| CGGGGAACTC | 1.06 ± 0.056 |
| CGGGGAAGAT | 0.981 ± 0.016 |
| CGGGGAAGGT | 1 ± 0.031 |
| CGGGGAATTG | 1 ± 0.014 |
| CGGGGAGATC | 1.03 ± 0.062 |
| CGGGGAGGCT | 0.988 ± 0.047 |
| CGGGGAGGGT | 0.967 ± 0.015 |
| CGGGGAGGTA | 0.9803 ± 0.0049 |
| CGGGGAGTGG | 0.973 ± 0.032 |
| CGGGGATCCT | 1.05 ± 0.032 |
| CGGGGATCTA | 1 ± 0.018 |
| CGGGGATGTA | 0.972 ± 0.031 |
| CGGGGATTGG | 1 ± 0.042 |
| CGGGGCACCG | 0.9868 ± 0.0032 |

| Sequence | switch fluorescence ratio |
| --- | --- |
| CGGGGCACGC | 0.896 ± 0.05 |
| CGGGGCACTG | 0.997 ± 0.018 |
| CGGGGCAGCG | 1.02 ± 0.042 |
| CGGGGCCGTT | 1 ± 0.019 |
| CGGGGCGCGG | 0.977 ± 0.024 |
| CGGGGCGG | 0.952 ± 0.057 |
| CGGGGCGGGG | 0.985 ± 0.012 |
| CGGGGCTCCG | 0.967 ± 0.023 |
| CGGGGCTTAG | 1.0342 ± 0.00025 |
| CGGGGCTTGT | 0.985 ± 0.013 |
| CGGGGGACGT | 0.9794 ± 0.0085 |
| CGGGGGAGCC | 1.02 ± 0.025 |
| CGGGGGAGGT | 0.989 ± 0.017 |
| CGGGGGCAGG | 1.03 ± 0.07 |
| CGGGGGCATA | 1 ± 0.029 |
| CGGGGGCGCG | 1.02 ± 0.021 |
| CGGGGGGAAG | 1.01 ± 0.029 |
| CGGGGGGCAG | 1.01 ± 0.024 |
| CGGGGGGCGC | 0.969 ± 0.014 |
| CGGGGGGGTC | 1 ± 0.036 |
| CGGGGGGGTT | 1.02 ± 0.034 |
| CGGGGGGTTA | 1.01 ± 0.033 |
| CGGGGGTCAA | 0.99 ± 0.011 |
| CGGGGGTCCA | 1.01 ± 0.055 |
| CGGGGGTCTA | 1.01 ± 0.045 |

| Sequence | switch fluorescence ratio |
| --- | --- |
| CGGGGGTGA | 1.014 ± 0.0059 |
| CGGGGGTGAG | 1.04 ± 0.13 |
| CGGGGGTGCT | 0.966 ± 0.044 |
| CGGGGGTTGC | 0.977 ± 0.042 |
| CGGGGTACCT | 1.01 ± 0.054 |
| CGGGGTACGC | 1 ± 0.076 |
| CGGGGTAGTT | 1.01 ± 0.004 |
| CGGGGTATCT | 0.979 ± 0.018 |
| CGGGGTCAAC | 1.24 ± 0.39 |
| CGGGGTCAGT | 1.02 ± 0.014 |
| CGGGGTCATG | 0.991 ± 0.024 |
| CGGGGTCCTA | 1.01 ± 0.014 |
| CGGGGTCCTG | 1.03 ± 0.054 |
| CGGGGTCTGT | 0.999 ± 0.022 |
| CGGGGTGGGA | 1.01 ± 0.029 |
| CGGGGTGTGC | 1.01 ± 0.031 |
| CGGGGTGTTC | 0.9849 ± 0.0049 |
| CGGGGTTGCA | 0.978 ± 0.022 |
| CGGGGTTGTG | 0.966 ± 0.014 |
| CGGGGTTTCG | 0.993 ± 0.028 |
| CGGGTAGGGC | 1.01 ± 0.032 |
| CGGGTAGGGG | 0.996 ± 0.069 |
| CGGGTAGTGG | 0.995 ± 0.032 |
| CGGGTATACT | 1.1 ± 0.092 |
| CGGGTATGGG | 0.984 ± 0.03 |
